From the supplement of paper PMC9170038

System: MS2 coat protein
Test: apparent KD of MS2 coat protein; designed switch direction (-1 OFF switch, 1 ON switch): 1; higher = weaker reporter binding
Summary of the method: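 The apparent KD reported per design is the median over clusters of curve fits to normalised cluster fluorescence. The RNA switches were transcribed on Illumina chips by stalled E. coli RNA polymerase. SNAP-549-labelled MS2 coat protein was titrated from 0.7 or 1.5 nM, doubling up to 3 µM, in Tris-HCl pH 7.5 buffer containing KCl, MgCl2, BSA, DTT, tRNA and Tween-20, with no input, 200 uM small-molecule ligand, or an oligonucleotide input.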

[1] = Eterna round: R95, input ligand: microRNA oligo, concentration not stated
[2] = Eterna round: R95, input ligand: FMN 200 uM
[3] = Eterna round: R95, input ligand: none
[4] = input ligand: microRNA oligo, concentration not stated

| Sequence | apparent KD of MS2 coat protein [1] | apparent KD of MS2 coat protein [2] | apparent KD of MS2 coat protein [3] | apparent KD of MS2 coat protein (input ligand: FMN 200 uM) | apparent KD of MS2 coat protein [4] | apparent KD of MS2 coat protein (input ligand: none) |
| --- | --- | --- | --- | --- | --- | --- |
| GUGUUACAUGAGGAUCACCCAUGUUGUUUUAGAUAAGGAUAUAUGGUAACGAGAGAAAUAAUAGAAGGUAUUAGGC [JR_SS1_Sub062] (puzzle: Same State 1) | 29.9 nM | – | – | – | – | – |
| GUUAAACAUGAGGAUCACCCAUGUAAUAAUAUGGGAGGAUAUCAGAAAGUAUGUAUGAAAUGAGAAGGCCUAAUUG [Mat - Same State 1 - Mod of Eli - D78] (puzzle: Same State 1) | 154 nM | 57.9 nM | 124 nM | – | – | – |
| GUUAAACAUGAGGAUCACCCAUGUAAUAAUAUGGGAGGAUAUCAGAAAUUAUUUAUUAAAUGAGAAGGCCUAAUUG [Mat - Same State 1 - Mod of Eli - D81] (puzzle: Same State 1) | 321 nM | 53.6 nM | 150 nM | – | – | – |
| GUUAAACAUGAGGAUCACCCAUGUCAAUGUAGUCGAGGAUAUGGGCAGCUAUGAGGCGUACUAGAAGGCGAAAAGU [Mat - Same State 1 - Mod of JL - D13] (puzzle: Same State 1) | 260 nM | 117 nM | 535 nM | – | – | – |
| GUUACAUGAGGAUCACCCAUGUAUGUGUGGGAGUAAGUGUCUUAGGAUAUCUAGUAUGUAAUUUAAGAGAAGGAAGAUUGUUGU [JMF's solution 56] (Eterna round: R96, puzzle: Same State NG 3) | – | – | – | 217 nM | 264 nM | 261 nM |
| GUUACAUGAGGAUCACCCAUGUAUGUGUGGGAGUAAGUGUCUUAGGAUAUCUAGUAUUUAAGUUAAGAGAAGGAAGAUUGUUGU [JMF's solution 62] (Eterna round: R96, puzzle: Same State NG 3) | – | – | – | 129 nM | 78 nM | 114 nM |
| GUUACAUGAGGAUCACCCAUGUAUGUGUGGGAGUAAGUGUCUUAGGAUAUCUAGUAUUUAAUUUUAGAGAAGGAAGAUUGUUGU [JMF's solution 69] (Eterna round: R96, puzzle: Same State NG 3) | – | – | – | 128 nM | 121 nM | 134 nM |
| GUUACAUGAGGAUCACCCAUGUAUGUGUGGGAGUAAGUGUCUUAGGAUAUCUAUCAUUUAAUUCAAGAGAAGGAAGAUUGUUGU [JMF's solution 100] (Eterna round: R96, puzzle: Same State NG 3) | – | – | – | 126 nM | 96.1 nM | 103 nM |
| GUUACAUGAGGAUCACCCAUGUAUGUGUGGGAGUAAGUGUCUUAGGAUAUCUAUGAUUUAAUCUAAGAGAAGGAAGAUUGUUGU [JMF's solution 82] (Eterna round: R96, puzzle: Same State NG 3) | – | – | – | 114 nM | 76.8 nM | 95.3 nM |
| GUUACAUGAGGAUCACCCAUGUAUGUGUGGGAGUAAGUGUCUUAGGAUAUCUAUUAUUUAAAUUAAGAGAAGGAAGAUUGUUGU [JMF's solution 7] (Eterna round: R96, puzzle: Same State NG 3) | – | – | – | – | 93 nM | – |
| GUUACAUGAGGAUCACCCAUGUAUGUGUGGGAGUAAGUGUCUUAGGAUAUCUGUUAUUUAACUUAAGAGAAGGAAGAUUGUUGU [JMF's solution 43] (Eterna round: R96, puzzle: Same State NG 3) | – | – | – | 108 nM | 65.4 nM | 105 nM |
| UAAACUAGUUAUAGUGUAAUGCAUAUUAUACAUGAGGAUCACCCAUGUGAUGGUUGGUAUGAUUUUGUUCGUCUUAA [JR_SHM208A_Sub079] (puzzle: Sensor for hsa-mir-208a) | 61.9 nM | 148 nM | 232 nM | – | – | – |
| UAAACUUCUUUUAGUGUAAUGCAAGUGAUACAUGAGGAUCACCCAUGUUUUGGAUCGUGUUAUUUUGUUCGUCUUAA [JR_SHM208A_Sub077] (puzzle: Sensor for hsa-mir-208a) | 30.3 nM | 33.2 nM | 42.9 nM | – | – | – |
| UAAACUUCUUUUAGUGUAAUGCAUGUGAUACAUGAGGAUCACCCAUGUUUUGGUUCGUUUUAUUUUGUUCGUCUUAA [JR_SHM208A_Sub078] (puzzle: Sensor for hsa-mir-208a) | 43.9 nM | 59.3 nM | 81.8 nM | – | – | – |
| UAAAGAUAGCGAGGAUAUCGCGAGGAUCACCCGUGAGAAGGCGCAGAGCCGAGGAUCACCCGGCUGAUCCUGAGGAGGAGGUCA (Eterna round: R96, puzzle: Same State NG 1) | – | – | – | 108 nM | 197 nM | 249 nM |
| UAAAUACAUGAGGAUCACCCAUGUCAAAAGACAUGAGGAUAUGUACAGACUUCGGUCUGUACAGAAGGCAUGAAAA [salish99_ss1_r3_095] (Eterna round: R96, puzzle: Same State 1) | – | – | – | – | 397 nM | – |
| UAAAUACAUGAGGAUCACCCAUGUCAAAAGACAUGAGGAUAUGUACAGACUUCGGUCUGUACAGAAGGCAUGAAAA [salish99_ss1_r3_095] (puzzle: Same State 1) | 708 nM | 43.6 nM | 890 nM | – | – | – |
| UAACAGUACAAUUUAGAUCUACAUGAGGAUCACCCAUGUACUGAGGAUAUCAGCUCGAAUAGAGCUGAGAAGGCAGAAGAACUA [SSNG3/11-A1] (Eterna round: R96, puzzle: Same State NG 3) | – | – | – | 35.8 nM | 127 nM | 203 nM |
| UAACAGUACAAUUUAGAUCUACAUGAGGAUCACCCAUGUACUGAGGAUAUCAGCUCGAUUAGAGCUGAGAAGGCAGAAGAACUA [SSNG3/11-A2] (Eterna round: R96, puzzle: Same State NG 3) | – | – | – | 48.5 nM | 173 nM | 344 nM |
| UAAUGUUAGCGAGGAUAUCGUUUAUUGAAGUUACGAGAAGGCGCUCUUCUUACAUGAGGAUCACCCAUGUCUGUUUUGCAUGAU [JR_SSNG1_Sub068] (Eterna round: R96, puzzle: Same State NG 1) | – | – | – | – | 50 nM | – |
| UAAUGUUUGCGAGGAUAUCGUUUAUUGAAGUUACGAGAAGGCGCUCUUCUUACAUGAGGAUCACCCAUGUCUGUUUUGCAUGAU [JR_SSNG1_Sub069] (Eterna round: R96, puzzle: Same State NG 1) | – | – | – | 44.4 nM | 56.8 nM | 81.5 nM |
| UAAUUAAAGCAAGGAUAUCACGUCGAAUAGACGUGAGAAGGUGCUCCUUACAUGAGGAUCACCCAUGUAUAACAUGAAUAAUUA [SSNG1/10-B1] (Eterna round: R96, puzzle: Same State NG 1) | – | – | – | 166 nM | 702 nM | 741 nM |
| UAAUUAAGUCAAGGAUAUCACGUCGAAUAGACGUGAGAAGGUGACCAAUACAUGAGGAUCACCCAUGUAAUACAUGAAUAAUUA [SSNG1/12-B1] (Eterna round: R96, puzzle: Same State NG 1) | – | – | – | 27.7 nM | 35.8 nM | 45.9 nM |
| UAAUUAAGUCAAGGAUAUCACGUCGAUUAGACGUGAGAAGGUGAUUAAUACAUGAGGAUCACCCAUGUAAUACAUGAAUAAUUA [SSNG1/11-B2] (Eterna round: R96, puzzle: Same State NG 1) | – | – | – | 37.1 nM | 61.4 nM | 76.1 nM |
| UACAAACGCGGAGGAUAUGGGCGAGGCGCAGAGGUCUGCGUCAAAACAUGAGGAUCACCCAUGUCCCAGAAGGCCGCGCAAACU [Anorra] (Eterna round: R96, puzzle: Same State NG 2) | – | – | – | 16.3 nM | 73.8 nM | 56.1 nM |
| UACAAUCUAUCUGAGGAUAUCAUGAAAAAAACAUGAGGAUCACCCAUGUGCAGGAAAACUGCAUAUGAGAAGGCAGAUAGAUUGC [salish99_SS2_r3_008] (Eterna round: R96, puzzle: Same State 2) | – | – | – | – | 458 nM | – |
| UACAAUCUAUCUGAGGAUAUCAUGAAAAAAACAUGAGGAUCACCCAUGUGCAGGAAAACUGCAUAUGAGAAGGCAGAUAGAUUGC [salish99_SS2_r3_008] (puzzle: Same State 2) | 806 nM | 34.1 nM | 1320 nM | – | – | – |
| UACAAUCUAUCUGAGGAUAUCAUGAAAAAAACAUGAGGAUCACCCAUGUGCAGGAAAACUGCAUAUGAGAAGGCAGAUAGAUUGU [salish99_SS2_r3_006] (Eterna round: R96, puzzle: Same State 2) | – | – | – | – | 585 nM | – |
| UACAAUCUAUCUGAGGAUAUCAUGAAAAAAACAUGAGGAUCACCCAUGUGCAGGAAAACUGCAUAUGAGAAGGCAGAUAGAUUGU [salish99_SS2_r3_006] (puzzle: Same State 2) | 971 nM | 32.4 nM | 1650 nM | – | – | – |
